Measurements: patent publication US20090029376
Positions count from the first letter of the chain named.

Columns and labels:
Experiment in all cases: cleavage_in_vitro
[1] = target: T1, SalI (Streptomyces albus G) (UniProt Q53608); conditions: NEB3, 37 C; Table 10 prints 4
T1 sequence: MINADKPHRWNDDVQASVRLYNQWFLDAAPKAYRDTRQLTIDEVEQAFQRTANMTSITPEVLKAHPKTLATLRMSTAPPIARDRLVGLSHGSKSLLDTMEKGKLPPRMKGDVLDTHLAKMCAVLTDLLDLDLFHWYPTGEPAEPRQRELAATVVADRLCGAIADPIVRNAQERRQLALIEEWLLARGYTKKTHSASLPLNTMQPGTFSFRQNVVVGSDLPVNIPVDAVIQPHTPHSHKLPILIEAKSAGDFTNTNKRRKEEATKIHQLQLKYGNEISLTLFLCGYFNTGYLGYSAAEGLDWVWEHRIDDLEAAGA

[2] = target: T2, SalI-HF R107A (Streptomyces albus G) (UniProt Q53608); conditions: NEB4, 37 C
T2 sequence: T1 sequence with R107A

[3] = system: T3, AvrII (Anabaena variabilis); conditions: NEB4, 37 C
T3 sequence: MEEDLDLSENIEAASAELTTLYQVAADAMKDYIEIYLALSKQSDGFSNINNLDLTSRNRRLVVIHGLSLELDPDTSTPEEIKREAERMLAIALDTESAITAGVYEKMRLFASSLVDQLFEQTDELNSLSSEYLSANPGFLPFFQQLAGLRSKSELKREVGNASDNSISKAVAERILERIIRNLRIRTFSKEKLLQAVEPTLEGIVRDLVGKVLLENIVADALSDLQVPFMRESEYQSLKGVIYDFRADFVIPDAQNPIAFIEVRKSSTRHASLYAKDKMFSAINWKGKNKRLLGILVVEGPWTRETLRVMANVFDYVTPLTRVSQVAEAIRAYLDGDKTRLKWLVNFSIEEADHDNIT

[4] = system: T4, AvrII-HF Y104F (Anabaena variabilis); conditions: NEB4, 37 C
T4 sequence: T3 sequence with Y104F

[5] = target: T5, PvuII-HF T46G (Proteus vulgaris) (UniProt P23657); conditions: NEB4, 37 C
T5 sequence: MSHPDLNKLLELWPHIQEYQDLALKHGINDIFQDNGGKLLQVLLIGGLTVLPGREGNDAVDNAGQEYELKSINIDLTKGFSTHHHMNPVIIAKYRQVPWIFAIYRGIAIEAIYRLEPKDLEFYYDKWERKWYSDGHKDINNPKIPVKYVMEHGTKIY

[6] = target: T6, BamHI(K30A/K52A) K30A/K52A (Bacillus amyloliquefaciens) (UniProt P23940); conditions: NEB2, 37 C
T6 sequence: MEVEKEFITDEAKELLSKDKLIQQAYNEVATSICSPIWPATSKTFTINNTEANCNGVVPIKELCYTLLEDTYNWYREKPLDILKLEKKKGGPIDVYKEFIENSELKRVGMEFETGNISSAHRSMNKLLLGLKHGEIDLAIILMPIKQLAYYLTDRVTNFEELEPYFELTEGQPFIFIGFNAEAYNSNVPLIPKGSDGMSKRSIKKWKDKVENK

[7] = target: T7, BamHI(K30A/K88A) K30A/K88A (Bacillus amyloliquefaciens) (UniProt P23940); conditions: NEB2, 37 C
T7 sequence: T6 sequence with A52K, K88A

[8] = system: T8, BspQI-HF K279P/R388F (Bacillus sphaericus); conditions: NEB4, 50 C
T8 sequence: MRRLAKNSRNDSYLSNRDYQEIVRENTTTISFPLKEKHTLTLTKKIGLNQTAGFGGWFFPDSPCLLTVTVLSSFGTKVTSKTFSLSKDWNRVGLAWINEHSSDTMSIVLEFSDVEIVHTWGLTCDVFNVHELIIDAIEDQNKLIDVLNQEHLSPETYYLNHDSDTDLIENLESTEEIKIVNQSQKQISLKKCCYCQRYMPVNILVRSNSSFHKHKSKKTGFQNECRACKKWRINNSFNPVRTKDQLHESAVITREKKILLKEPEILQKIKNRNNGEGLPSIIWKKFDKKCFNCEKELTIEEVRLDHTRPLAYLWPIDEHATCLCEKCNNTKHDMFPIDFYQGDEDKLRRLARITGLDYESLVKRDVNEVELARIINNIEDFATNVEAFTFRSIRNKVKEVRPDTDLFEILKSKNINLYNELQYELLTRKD

Substance HindIII-digested lambda DNA has an activity (fidelity index) [1] of 32 and an activity (fidelity index) [2] of over 2000.

With T7 DNA the activity (fidelity index) [3] was 32 and the activity (fidelity index) [4] was 1000.

pBR322 showed an activity (fidelity index) [5] of 500.

Work on pUC19 yielded a relative cleavage activity (fraction of K30A activity) [6] of 0.1, a relative cleavage activity (fraction of K30A activity) [7] of 0.1 and an activity (fidelity index) [8] of over 4000.
